Changes are numbered by the printed parent chain.
T1: Human BCMA (human, UniProt Q02223 1-54, limits assumed)
T1 construct: also called huBCMA; B-cell maturation antigen
T1 sequence (looked up): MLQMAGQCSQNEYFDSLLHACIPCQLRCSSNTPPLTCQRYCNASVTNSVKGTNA

T2: Human BCMA (human, UniProt Q02223 1-54, limits assumed)
T2 construct: Soluble analyte in SPR; construct not described; also called huBCMA; B-cell maturation antigen
T2 sequence (looked up): T1 sequence (looked up)

B1: COMBO_Rd4_0.6nM_C21 (antibody, V domains shown)
VH: EVQLLESGGGLVQPGGSLRLSCAASGFTFSSYPMSWVRQAPGKGLEWVSAIGGSGGSLPYADSVKGRFTISRDNSKNTLYLQMNSLRAEDTAVYYCARYWPMDSWGQGTLVTVSS
VL: EIVLTQSPGTLSLSPGERATLSCRASQSVSSSYLAWYQQKPGQAPRLLMYDASIRATGIPDRFSGSGSGTDFTLTISRLEPEDFAVYYCQQYQSWPLTFGQGTKVEIK
notes: IgG
B2: A02_Rd4_0.6nM_C06 (antibody, V domains shown)
VH: B1 VH with P33A, S35N, G52S, G53D, L58A, P59W, D103S, S104L
VL: B1 VL with S31V, S32L, S94R
notes: IgG
B3: A02_Rd4_0.6nM_C01 (antibody, V domains shown)
VH: B1 VH with P33A, S35N, G52L, G53S, L58T, P59Y, S104I
VL: B1 VL with A25G, S26G
notes: IgG; also called P5AC1
B4: A02_Rd4_0.6nM_C09 (antibody, V domains shown)
VH: B1 VH with P33A, S35N, G52S, G53D, L58M, P59W, D103S, S104L
VL: B1 VL
notes: IgG
B5: A02_Rd4_0.6nM_C13 (antibody, V domains shown)
VH: B1 VH with P33A, S35N, G52S, G53D, S57Y, L58R, P59Y, D103S, S104L
VL: B1 VL with L34W, Q93E
notes: IgG
B6: A02_Rd4_0.6nM_C03 (antibody, V domains shown)
VH: B1 VH with P33A, S35N, G52S, G53D, L58K, P59W, D103S, S104L
VL: B1 VL with Q93F, S94T
notes: IgG
B7: A02_Rd4_0.6nM_C10 (antibody, V domains shown)
VH: B1 VH with P33A, S35N, G52S, S54W
VL: B1 VL with S31A, S32Q, S94R
notes: IgG
B8: L3.PY/L3.KF/H2.DY (antibody, V domains shown)
VH: EVQLLESGGGLVQPGGSLRLSCAASGFTFGSYAMTWVRQAPGKGLEWVSAIDYSGGNTFYADSVKGRFTISRDNSKNTLYLQMNSLRAEDTAVYYCARVSPIASGMDYWGQGTLVTVSS
VL: EIVLTQSPGTLSLSPGERATLSCRASQSVSSSYLAWYQQKPGQAPRLLIYGASSRATGIPDRFSGSGSGTDFTLTISRLEPEDFAVYYCKFYPYPPSFTFGQGTKVEIK
notes: IgG
B9: L3.PY/L3.KF/H3.YA (antibody, V domains shown)
VH: B8 VH with D52S, Y53G, A103Y, S104A
VL: B8 VL
notes: IgG
B10: L3.PY/L3.KF/H3.AQ (antibody, V domains shown)
VH: B8 VH with D52S, Y53G, S104A, G105Q
VL: B8 VL
notes: IgG
B11: L3.PY/L3.KY/H2.LT (antibody, V domains shown)
VH: B8 VH with D52S, Y53L, S54T
VL: B8 VL with F91Y
notes: IgG
B12: L3.PY/L3.KF/H2.YQ (antibody, V domains shown)
VH: B8 VH with D52S, S54Q
VL: B8 VL
notes: IgG
B13: L3.PY/L3.KY/H2.DY (antibody, V domains shown)
VH: B8 VH
VL: B8 VL with F91Y
notes: IgG
B14: L3.PY/L3.KF/H2.QL (antibody, V domains shown)
VH: B8 VH with D52S, Y53G, S63Q, V64L
VL: B8 VL
notes: IgG
B15: L3.PY/L3.KF/H2.LT (antibody, V domains shown)
VH: B8 VH with D52S, Y53L, S54T
VL: B8 VL
notes: IgG
B16: L3.PY/L3.KY/H2.QL (antibody, V domains shown)
VH: B8 VH with D52S, Y53G, S63Q, V64L
VL: B8 VL with F91Y
notes: IgG
B17: L3.PY/L3.KY/H2.YQ (antibody, V domains shown)
VH: B8 VH with D52S, S54Q
VL: B8 VL with F91Y
notes: IgG
B18: L3.PY/L3.KY/H2.QR (antibody, V domains shown)
VH: B8 VH with D52S, Y53G, S63Q, V64R
VL: B8 VL with F91Y
notes: IgG
B19: L3.PY/L3.KY/H3.TAQ (antibody, V domains shown)
VH: B8 VH with D52S, Y53G, A97T, S104A, G105Q
VL: B8 VL with F91Y
notes: IgG
B20: L3.PY/L3.KY/H3.YA (antibody, V domains shown)
VH: B8 VH with D52S, Y53G, A103Y, S104A
VL: B8 VL with F91Y
notes: IgG
B21: L3.PY/L3.KF/H3.TAQ (antibody, V domains shown)
VH: B8 VH with D52S, Y53G, A97T, S104A, G105Q
VL: B8 VL
notes: IgG
B22: L3.PY/L3.KF/H3.AE (antibody, V domains shown)
VH: B8 VH with D52S, Y53G, S104A, G105E
VL: B8 VL
notes: IgG
B23: L3.PY/L3.KY/H2.HA (antibody, V domains shown)
VH: B8 VH with D52S, Y53H, S54A
VL: B8 VL with F91Y
notes: IgG

What was measured:
Cynomolgus monkey BCMA = biological target: T3, Cynomolgus monkey BCMA (cynomolgus monkey); assay: SPR, IgG immobilised, cyno BCMA analyte
T3 construct: Soluble analyte in SPR; also called cyBCMA; Cyno BCMA
Experimental: (§1) All experiments were performed on a Bio-Rad Proteon XPR36 surface Plasmon resonance biosensor (Bio-Rad, Hercules, Calif.). […] The analysis temperature for the immobilization was 25° C. and the running buffer was HBS-T+(10 mM HEPES, 150 mM NaCl, 0.05% Tween-20, pH 7.4). Channels were activated in the analyte (horizontal) direction by injecting a mixture of 1 mM ECD and 0.25 mM NHS for 3 minutes at a flow rate of 30 μL/min. IgGs were immobilized on the activated spots by injecting them in the ligand (vertical) direction at 20 μg/mL in 10 mM Acetate pH 4.5 buffer for 1.5 minutes at […]. The activated surfaces were blocked by injecting 1M ethanolamine, pH 8.5 in the analyte direction for 3 minutes at 30 μL/min.
(§2) The analysis temperature for the BCMA binding analysis was 37° C. or 25° C. in a running buffer of HBS-T+, supplemented with 1 mg/mL BSA. A kinetic titration method was employed for the interaction analysis as described in Abdiche, et al. Human BCMA (huBCMA) or cynomolgus monkey BCMA (cyBCMA) analyte was injected in the analyte direction using a series of injections from low to high concentration. The concentrations used were 0.08 nM, 0.4 nM, 2 nM, 10 nM and 50 nM (a 5-membered series, with a 5-fold dilution factor and top concentration of 50 nM). The association time for a given analyte dilution was two minutes. Immediately after the 50 nM BCMA injection, dissociation was monitored for 2 hours.
(§3) The sensorgrams were double-referenced and fit to a 1:1 Langmuir with mass transport kinetic titration model in BIAevaluation Software version 4.1.1 (GE Lifesciences, Piscataway, N.J.).

Human BCMA [1] = biological target: T1, Human BCMA; assay: SPR, IgG immobilised, human BCMA analyte
Experimental: as §1, §2, §3

Human BCMA [2] = biological target: T2, Human BCMA; assay: SPR, IgG immobilised, 37 C
Experimental: as §1, §2, §3

Row | Binder | Kd (Cynomolgus monkey BCMA) [nM] | koff (Cynomolgus monkey BCMA) [s⁻¹] | kon (Cynomolgus monkey BCMA) [M⁻¹ s⁻¹] | Kd (Human BCMA [1]) [nM] | koff (Human BCMA [1]) [s⁻¹] | kon (Human BCMA [1]) [M⁻¹ s⁻¹] | Kd (Human BCMA [2]) [nM] | T ½ (Human BCMA [2]) [min] | koff (Human BCMA [2]) [s⁻¹] | kon (Human BCMA [2]) [M⁻¹ s⁻¹]
1 | B1 | 0.084 | 0.000304 | 3.63e+06 | 0.009 | 0.000115 | 1.34e+07 |  |  |  | 
2 | B2 | 0.058 | 0.000105 | 1.81e+06 | 0.021 | 7.37e-05 | 3.49e+06 |  |  |  | 
3 | B3 | 0.655 | 0.00157 | 2.39e+06 | 0.193 | 0.000915 | 4.74e+06 |  |  |  | 
4 | B4 | 0.082 | 0.000174 | 2.13e+06 | 0.018 | 9.75e-05 | 5.5e+06 |  |  |  | 
5 | B5 | 0.56 | 0.00128 | 2.29e+06 | 0.066 | 0.000566 | 8.53e+06 |  |  |  | 
6 | B6 | 0.201 | 0.000426 | 2.12e+06 | 0.043 | 0.000182 | 4.27e+06 |  |  |  | 
7 | B7 | 1.84 | 0.00163 | 883000 | 0.129 | 0.000296 | 2.3e+06 |  |  |  | 
8 | B8 |  |  |  |  |  |  | 0.67 | 6.35 | 0.00182 | 2.74e+06
9 | B9 |  |  |  |  |  |  | 0.47 | 7.85 | 0.00147 | 3.12e+06
10 | B10 |  |  |  |  |  |  | 0.65 | 5.09 | 0.00227 | 3.48e+06
11 | B11 |  |  |  |  |  |  | 0.31 | 12.8 | 0.000906 | 2.92e+06
12 | B12 |  |  |  |  |  |  | 1.14 | 5.18 | 0.00223 | 1.96e+06
13 | B13 |  |  |  |  |  |  | 0.2 | 18 | 0.000642 | 3.19e+06
14 | B14 |  |  |  |  |  |  | 0.6 | 9.26 | 0.00125 | 2.07e+06
15 | B15 |  |  |  |  |  |  | 0.69 | 6.05 | 0.00191 | 2.75e+06
16 | B16 |  |  |  |  |  |  | 0.57 | 5.56 | 0.00208 | 3.65e+06
17 | B17 |  |  |  |  |  |  | 0.77 | 7.02 | 0.00165 | 2.14e+06
18 | B18 |  |  |  |  |  |  | 0.34 | 11.7 | 0.00099 | 2.95e+06
19 | B19 |  |  |  |  |  |  | 0.23 | 17.8 | 0.000649 | 2.79e+06
20 | B20 |  |  |  |  |  |  | 0.28 | 12.7 | 0.000912 | 3.3e+06
21 | B21 |  |  |  |  |  |  | 0.58 | 7.12 | 0.00162 | 2.82e+06
22 | B22 |  |  |  |  |  |  | 0.51 | 7.44 | 0.00155 | 3.07e+06
23 | B23 |  |  |  |  |  |  | 0.49 | 7.1 | 0.00163 | 3.29e+06
